Assay results as given in paper PMC4605305, “TRAP150 interacts with the RNA-binding domain of PSF and antagonizes splicing of numerous PSF-target genes in T cells” (Nucleic Acids Research, 2015).

T1: GST-TRAP266–755 (UniProt Q9Y2W1 266-755)
T1 construct: source: E. coli Rosetta(DE3)pLysS, purified (glutathione sepharose, SEC); not shown: GST, N-terminal, kept
T1 sequence (looked up): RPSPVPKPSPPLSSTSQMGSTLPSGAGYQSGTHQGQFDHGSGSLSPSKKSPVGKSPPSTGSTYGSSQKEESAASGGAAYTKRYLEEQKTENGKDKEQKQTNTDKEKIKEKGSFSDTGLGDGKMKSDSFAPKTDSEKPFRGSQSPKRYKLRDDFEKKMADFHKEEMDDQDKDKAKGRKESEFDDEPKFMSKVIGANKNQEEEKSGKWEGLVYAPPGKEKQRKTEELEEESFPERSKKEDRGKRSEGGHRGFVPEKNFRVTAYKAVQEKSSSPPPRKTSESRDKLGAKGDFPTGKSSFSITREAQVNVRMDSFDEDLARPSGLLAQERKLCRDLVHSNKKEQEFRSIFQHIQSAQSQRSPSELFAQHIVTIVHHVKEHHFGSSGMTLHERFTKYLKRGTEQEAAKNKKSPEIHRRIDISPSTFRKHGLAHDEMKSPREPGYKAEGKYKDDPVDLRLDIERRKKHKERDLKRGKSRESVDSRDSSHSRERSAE

T2: GST-TRAPΔN (TRAP150 266-955) (UniProt Q9Y2W1 266-955)
T2 construct: pGEX-6-P1; also called GST-TRAP150ΔN; TRAP150-ΔN; source: E. coli Rosetta(DE3)pLysS, purified (glutathione sepharose, SEC); not shown: GST, N-terminal, kept
T2 sequence (looked up): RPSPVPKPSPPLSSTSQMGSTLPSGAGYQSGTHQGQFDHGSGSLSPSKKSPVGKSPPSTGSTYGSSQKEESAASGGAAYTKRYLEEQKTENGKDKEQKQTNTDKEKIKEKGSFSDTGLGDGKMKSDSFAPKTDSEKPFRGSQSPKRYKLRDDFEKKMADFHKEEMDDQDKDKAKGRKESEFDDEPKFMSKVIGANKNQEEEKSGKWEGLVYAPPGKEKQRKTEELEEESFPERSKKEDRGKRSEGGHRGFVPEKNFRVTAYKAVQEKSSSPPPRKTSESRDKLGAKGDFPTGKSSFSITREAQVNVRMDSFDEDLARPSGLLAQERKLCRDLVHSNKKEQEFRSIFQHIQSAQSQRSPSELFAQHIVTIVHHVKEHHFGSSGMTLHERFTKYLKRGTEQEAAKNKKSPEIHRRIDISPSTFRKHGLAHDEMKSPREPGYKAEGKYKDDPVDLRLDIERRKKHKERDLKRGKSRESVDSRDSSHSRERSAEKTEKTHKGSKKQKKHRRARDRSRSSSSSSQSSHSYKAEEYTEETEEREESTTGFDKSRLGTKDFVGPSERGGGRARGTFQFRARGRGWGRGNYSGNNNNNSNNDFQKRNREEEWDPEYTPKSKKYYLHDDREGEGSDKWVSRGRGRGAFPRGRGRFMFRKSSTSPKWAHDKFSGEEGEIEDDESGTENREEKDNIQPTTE

T3: PSF exRRMs (human, UniProt P23246 266-484)
T3 sequence: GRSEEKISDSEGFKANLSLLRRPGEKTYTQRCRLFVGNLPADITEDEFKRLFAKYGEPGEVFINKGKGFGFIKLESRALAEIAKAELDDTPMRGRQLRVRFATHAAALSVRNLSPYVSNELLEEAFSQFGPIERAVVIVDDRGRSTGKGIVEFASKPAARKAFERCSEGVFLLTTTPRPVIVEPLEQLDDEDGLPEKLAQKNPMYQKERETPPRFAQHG

T4: PSF exRRM2 (human, UniProt P23246 366-484)
T4 sequence: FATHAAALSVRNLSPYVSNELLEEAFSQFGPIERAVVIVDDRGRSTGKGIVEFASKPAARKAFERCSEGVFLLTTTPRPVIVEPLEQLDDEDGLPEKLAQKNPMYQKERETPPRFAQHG

T5: hnRNP L (UniProt P14866 1-589)
T5 sequence: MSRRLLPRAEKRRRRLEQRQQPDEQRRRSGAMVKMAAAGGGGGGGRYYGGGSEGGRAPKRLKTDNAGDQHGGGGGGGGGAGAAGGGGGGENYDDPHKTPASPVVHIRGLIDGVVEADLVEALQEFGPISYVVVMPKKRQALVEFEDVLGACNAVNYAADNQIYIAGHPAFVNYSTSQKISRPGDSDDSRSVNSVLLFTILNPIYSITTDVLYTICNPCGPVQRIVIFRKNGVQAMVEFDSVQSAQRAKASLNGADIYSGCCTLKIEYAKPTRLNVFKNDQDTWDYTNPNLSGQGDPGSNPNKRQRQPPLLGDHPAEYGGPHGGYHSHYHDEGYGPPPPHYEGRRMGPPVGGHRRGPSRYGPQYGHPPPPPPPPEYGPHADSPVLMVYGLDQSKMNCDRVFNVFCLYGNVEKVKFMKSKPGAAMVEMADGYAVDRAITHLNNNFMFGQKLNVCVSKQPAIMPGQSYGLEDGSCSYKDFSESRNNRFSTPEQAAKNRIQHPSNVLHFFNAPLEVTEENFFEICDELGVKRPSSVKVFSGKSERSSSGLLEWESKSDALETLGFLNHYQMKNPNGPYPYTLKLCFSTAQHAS

T6: PSF minRRMs (human, UniProt P23246 299-449)
T6 sequence: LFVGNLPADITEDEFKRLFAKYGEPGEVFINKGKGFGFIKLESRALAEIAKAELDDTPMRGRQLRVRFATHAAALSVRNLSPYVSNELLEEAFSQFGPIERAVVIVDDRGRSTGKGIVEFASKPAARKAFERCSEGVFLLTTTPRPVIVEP

T7: PSF full-length (PSF-FL) (human, UniProt P23246 1-707)
T7 sequence: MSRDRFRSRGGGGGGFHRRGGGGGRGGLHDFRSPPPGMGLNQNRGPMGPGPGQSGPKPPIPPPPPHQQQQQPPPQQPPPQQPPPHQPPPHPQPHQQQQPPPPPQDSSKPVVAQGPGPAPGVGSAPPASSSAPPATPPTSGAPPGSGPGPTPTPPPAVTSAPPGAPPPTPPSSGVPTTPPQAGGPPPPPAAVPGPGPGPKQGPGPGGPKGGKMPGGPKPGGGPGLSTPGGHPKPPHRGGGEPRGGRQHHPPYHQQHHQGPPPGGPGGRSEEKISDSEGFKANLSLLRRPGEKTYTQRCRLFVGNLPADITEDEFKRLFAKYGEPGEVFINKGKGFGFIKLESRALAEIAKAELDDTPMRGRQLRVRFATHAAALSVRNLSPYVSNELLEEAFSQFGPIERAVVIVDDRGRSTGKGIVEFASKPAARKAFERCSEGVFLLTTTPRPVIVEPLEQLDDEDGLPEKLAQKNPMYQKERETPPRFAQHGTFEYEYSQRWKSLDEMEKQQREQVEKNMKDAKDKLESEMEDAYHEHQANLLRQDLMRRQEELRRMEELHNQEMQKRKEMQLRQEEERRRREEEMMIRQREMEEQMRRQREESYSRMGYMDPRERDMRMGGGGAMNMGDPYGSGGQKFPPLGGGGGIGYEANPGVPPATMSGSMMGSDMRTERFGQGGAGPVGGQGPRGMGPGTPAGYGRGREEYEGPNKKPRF


Assays:
GST-TRAP266–755 = target: T1, GST-TRAP266–755; test: pull-down; 40 ug GST-tagged bait on glutathione sepharose 4B beads; prey incubated 1.5 h at 4°C in PBS; washes with PBS supplemented with 300 mM NaCl; western blot; conditions: both partners purified
[1] = target: T2, GST-TRAPΔN (TRAP150 266-955); test: as above; conditions: both partners purified
PSF exRRMs = target: T3, PSF exRRMs; test: EMSA; UV crosslinking: 12 mM Tris pH 7.5, 120 mM NaCl, 3 mM MgCl2, 1 mM ATP, 20 mM phosphocreatine, 0.1 mM EDTA, 12% glycerol, 1.3% PVA, 25 ng/ul yeast tRNA, 20 ng/ul; conditions: protein: recombinant; tags: 6xHis-FLAG N-term; label: uniform 32P
PSF exRRM2 = target: T4, PSF exRRM2; test: EMSA; affinity similar to exRRMs; UV crosslinking: 12 mM Tris pH 7.5, 120 mM NaCl, 3 mM MgCl2, 1 mM ATP, 20 mM phosphocreatine, 0.1 mM EDTA, 12% glycerol, 1.3% PVA, 25 ng/ul yeast tRNA, 20 ng/ul; conditions: protein: recombinant; tags: 6xHis-FLAG N-term; label: uniform 32P
hnRNP L = target: T5, hnRNP L; test: UV crosslinking competition; GST-TRAP150 PID (686-755), no inhibition; UV crosslinking: 12 mM Tris pH 7.5, 120 mM NaCl, 3 mM MgCl2, 1 mM ATP, 20 mM phosphocreatine, 0.1 mM EDTA, 12% glycerol, 1.3% PVA, 25 ng/ul yeast tRNA, 20 ng/ul; conditions: protein: recombinant; tags: 6xHis; label: uniform 32P
PSF minRRMs = target: T6, PSF minRRMs; test: as above; conditions: protein: recombinant; tags: 6xHis-FLAG N-term; label: uniform 32P
PSF full-length (PSF-FL) = target: T7, PSF full-length (PSF-FL); test: UV crosslinking; higher affinity than exRRMs; UV crosslinking: 12 mM Tris pH 7.5, 120 mM NaCl, 3 mM MgCl2, 1 mM ATP, 20 mM phosphocreatine, 0.1 mM EDTA, 12% glycerol, 1.3% PVA, 25 ng/ul yeast tRNA, 20 ng/ul; conditions: protein: recombinant; tags: 6xHis-FLAG N-term; chain copies: 2; label: uniform 32P

binding result (GST-TRAP266–755) | binding result [1] | Binder | binding result (PSF exRRMs) | binding result (PSF exRRM2) | binding result (hnRNP L) | binding result (PSF minRRMs) | binding result (PSF full-length (PSF-FL))
binds | binds | HisFLAG-PSF exRRMs (266-484) (domain or fragment, UniProt P23246 266-484, looked up, also called HisFLAG-exRRMs; HFexRRM1+2; source: E. coli Rosetta(DE3)pLysS, purified (Ni-NTA, SEC); not shown: His6, N-terminal, kept; FLAG, N-terminal, kept) GRSEEKISDSEGFKANLSLLRRPGEKTYTQRCRLFVGNLPADITEDEFKRLFAKYGEPGEVFINKGKGFGFIKLESRALAEIAKAELDDTPMRGRQLRVRFATHAAALSVRNLSPYVSNELLEEAFSQFGPIERAVVIVDDRGRSTGKGIVEFASKPAARKAFERCSEGVFLLTTTPRPVIVEPLEQLDDEDGLPEKLAQKNPMYQKERETPPRFAQHG |  |  |  |  | 
 |  | ESS1 (ssRNA) RNA: ACGCGUCCACUUUCAAGUGACCCCUUACCUACUCACACCACUGCAUUCUCACCCGCAAGCACCUUUGACGCGU | binds | binds | binds | binds | binds
